The results in this text go back to patent US20130165347.

For the data set, the system named is Terminal deoxynucleotidyl transferase (TdT, pCMV-TdT / pMTdT). In words: cell_activity. The settings on record: wild-type CHO KA8 cells, 19 of 27 clones, I-SceI-cleaved ends; 4% without TdT; N addition absent in Ku80- or XRCC4-deficient cells.

As to TACCCTGTTATCCCTA (double strand), the activity (% junctions with N additions) was 70.
